Measured values reported in the supplement of paper PMC9112550, “Optimization of the antimicrobial peptide Bac7 by deep mutational scanning” (BMC Biology, 2022).

These sequences were tested on Escherichia coli TOP10 (assay: shrunken log2 fold change of peptide-encoding DNA abundance (4.5 h post-induction vs induction); higher = less antimicrobial activity (less host growth inhibition)). Details: time post-induction: 4.5 h; library: site-saturation at positions 5, 18, 19, 20.
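Further: peptides expressed intracellularly from a pBAD plasmid library in pooled LB shake-flask culture, induced with 0.3% L-arabinose, DNA abundance read by NGS, three biological replicates, DESeq2 with apeglm shrinkage.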

| Sequence | shrunken log2 fold change |
| --- | --- |
| RRIRHRPPRLPRPRPRPVCWPRP | 0.268 |
| RRIRWRPPRLPRPRPRPSDIPRP | -0.031 |
| RRIRMRPPRLPRPRPRPGNVPRP | -0.0105 |
| RRIRCRPPRLPRPRPRPDVGPRP | -0.0874 |
| RRIRTRPPRLPRPRPRPDLRPRP | -0.0122 |
| RRIRSRPPRLPRPRPRPYDMPRP | -0.122 |
| RRIRTRPPRLPRPRPRPQIYPRP | -0.179 |
| RRIRFRPPRLPRPRPRPHIQPRP | -0.594 |
| RRIRQRPPRLPRPRPRPDAGPRP | -0.0738 |
| RRIRTRPPRLPRPRPRPQMQPRP | -0.0728 |
| RRIRHRPPRLPRPRPRPHTIPRP | -0.0571 |
| RRIRLRPPRLPRPRPRPCCNPRP | -0.155 |
| RRIRVRPPRLPRPRPRPPMQPRP | 0.152 |
| RRIRNRPPRLPRPRPRPNNYPRP | -1.01 |
| RRIRYRPPRLPRPRPRPYEQPRP | -0.0134 |
| RRIRTRPPRLPRPRPRPEPDPRP | 0.286 |
| RRIRARPPRLPRPRPRPMPAPRP | 0.722 |
| RRIRSRPPRLPRPRPRPETWPRP | -0.0382 |
| RRIRVRPPRLPRPRPRPLKHPRP | -0.486 |
| RRIRQRPPRLPRPRPRPLRFPRP | -0.041 |
| RRIRYRPPRLPRPRPRPYWKPRP | -0.0135 |
| RRIRTRPPRLPRPRPRPMIDPRP | -0.246 |
| RRIRARPPRLPRPRPRPIMCPRP | -0.0139 |
| RRIRGRPPRLPRPRPRPHFIPRP | -0.139 |
| RRIRHRPPRLPRPRPRPRMKPRP | -0.223 |

| Sequence | shrunken log2 fold change |
| --- | --- |
| RRIRGRPPRLPRPRPRPYPVPRP | 0.0121 |
| RRIRSRPPRLPRPRPRPWVPPRP | 0.177 |
| RRIRSRPPRLPRPRPRPSWWPRP | 0.0841 |
| RRIRQRPPRLPRPRPRPSTCPRP | -0.0113 |
| RRIRTRPPRLPRPRPRPPSLPRP | -0.11 |
| RRIRDRPPRLPRPRPRPMPQPRP | 0.0354 |
| RRIRWRPPRLPRPRPRPMAHPRP | 0.0444 |
| RRIRVRPPRLPRPRPRPYEIPRP | -0.14 |
| RRIRCRPPRLPRPRPRPVLKPRP | 0.181 |
| RRIRQRPPRLPRPRPRPDDVPRP | 0.064 |
| RRIRIRPPRLPRPRPRPYIHPRP | -1.3 |
| RRIRLRPPRLPRPRPRPQKWPRP | 2.37 |
| RRIRIRPPRLPRPRPRPMMTPRP | -0.115 |
| RRIRERPPRLPRPRPRPTPSPRP | 0.14 |
| RRIRARPPRLPRPRPRPCANPRP | 0.102 |
| RRIRMRPPRLPRPRPRPMYMPRP | 0.0751 |
| RRIRKRPPRLPRPRPRPMNVPRP | 0.13 |
| RRIRWRPPRLPRPRPRPTEIPRP | -0.22 |
| RRIRWRPPRLPRPRPRPVLNPRP | 0.116 |
| RRIRNRPPRLPRPRPRPHHHPRP | -0.617 |
| RRIRVRPPRLPRPRPRPWHLPRP | -0.191 |
| RRIRGRPPRLPRPRPRPPHHPRP | 0.537 |
| RRIRERPPRLPRPRPRPTSAPRP | 0.153 |
| RRIRGRPPRLPRPRPRPIHSPRP | -0.441 |
| RRIRGRPPRLPRPRPRPPAIPRP | 0.859 |

| Sequence | shrunken log2 fold change |
| --- | --- |
| RRIRHRPPRLPRPRPRPPEDPRP | 0.314 |
| RRIRFRPPRLPRPRPRPVCIPRP | -0.541 |
| RRIRWRPPRLPRPRPRPQVMPRP | 0.209 |
| RRIRSRPPRLPRPRPRPVTDPRP | 0.102 |
| RRIRQRPPRLPRPRPRPAHIPRP | -0.137 |
| RRIRCRPPRLPRPRPRPSQHPRP | -0.114 |
| RRIRCRPPRLPRPRPRPSFFPRP | -0.552 |
| RRIRKRPPRLPRPRPRPVFHPRP | 0.818 |
| RRIRRRPPRLPRPRPRPECHPRP | 0.171 |
| RRIRERPPRLPRPRPRPIWNPRP | -0.0842 |
| RRIRYRPPRLPRPRPRPGYDPRP | -0.205 |
| RRIRTRPPRLPRPRPRPSFQPRP | -0.427 |
| RRIRRRPPRLPRPRPRPYSDPRP | 0.186 |
| RRIRKRPPRLPRPRPRPAYKPRP | 0.354 |
| RRIRNRPPRLPRPRPRPTDGPRP | -0.113 |
| RRIRPRPPRLPRPRPRPQCMPRP | -0.312 |
| RRIRARPPRLPRPRPRPQWGPRP | 0.315 |
| RRIRERPPRLPRPRPRPGVEPRP | -0.194 |
| RRIRARPPRLPRPRPRPWYNPRP | -0.305 |
| RRIRIRPPRLPRPRPRPCRAPRP | -0.284 |
| RRIRGRPPRLPRPRPRPKLGPRP | 1.12 |
| RRIRIRPPRLPRPRPRPRVYPRP | 0.00283 |
| RRIRVRPPRLPRPRPRPLGRPRP | 0.267 |
| RRIRTRPPRLPRPRPRPVDVPRP | -0.236 |
| RRIRLRPPRLPRPRPRPVSCPRP | -0.0041 |

| Sequence | shrunken log2 fold change |
| --- | --- |
| RRIRFRPPRLPRPRPRPIDFPRP | -0.0919 |
| RRIRVRPPRLPRPRPRPAMFPRP | -0.0685 |
| RRIRIRPPRLPRPRPRPVAAPRP | 0.176 |
| RRIRPRPPRLPRPRPRPASLPRP | 0.187 |
| RRIRVRPPRLPRPRPRPLATPRP | 0.309 |
| RRIRVRPPRLPRPRPRPFYSPRP | -0.3 |
| RRIRFRPPRLPRPRPRPQSAPRP | 0.0283 |
| RRIRCRPPRLPRPRPRPQQDPRP | -0.046 |
| RRIRHRPPRLPRPRPRPQVVPRP | -0.101 |
| RRIRSRPPRLPRPRPRPHSLPRP | 0.0616 |
| RRIRYRPPRLPRPRPRPMFFPRP | -0.618 |
| RRIRKRPPRLPRPRPRPQPNPRP | 0.159 |
| RRIRPRPPRLPRPRPRPWHWPRP | -0.0102 |
| RRIRNRPPRLPRPRPRPVFLPRP | -0.215 |
| RRIRLRPPRLPRPRPRPAVCPRP | 0.0348 |
| RRIRLRPPRLPRPRPRPMAKPRP | 0.109 |
| RRIRHRPPRLPRPRPRPPQHPRP | -0.177 |
| RRIRFRPPRLPRPRPRPWPEPRP | 0.0713 |
| RRIRIRPPRLPRPRPRPRHHPRP | -0.408 |
| RRIRGRPPRLPRPRPRPLDFPRP | 0.78 |
| RRIRWRPPRLPRPRPRPMINPRP | -0.212 |
| RRIRLRPPRLPRPRPRPIAKPRP | -0.305 |
| RRIRPRPPRLPRPRPRPLWPPRP | 0.325 |
| RRIRWRPPRLPRPRPRPMYGPRP | -0.0856 |
| RRIRARPPRLPRPRPRPHFLPRP | -0.127 |

| Sequence | shrunken log2 fold change |
| --- | --- |
| RRIRCRPPRLPRPRPRPEIRPRP | -0.123 |
| RRIRLRPPRLPRPRPRPGKYPRP | -0.282 |
| RRIRNRPPRLPRPRPRPIFMPRP | -0.116 |
| RRIRVRPPRLPRPRPRPQSRPRP | 0.0616 |
| RRIRQRPPRLPRPRPRPTIVPRP | -0.119 |
| RRIRLRPPRLPRPRPRPPTMPRP | 0.266 |
| RRIRWRPPRLPRPRPRPRKKPRP | 0.408 |
| RRIRWRPPRLPRPRPRPLNLPRP | -0.184 |
| RRIRYRPPRLPRPRPRPFFWPRP | -0.03 |
| RRIRWRPPRLPRPRPRPKNMPRP | -0.189 |
| RRIRVRPPRLPRPRPRPQQKPRP | -0.027 |
| RRIRFRPPRLPRPRPRPFLQPRP | -0.408 |
| RRIRGRPPRLPRPRPRPHGLPRP | 0.211 |
| RRIRKRPPRLPRPRPRPRAQPRP | 0.7 |
| RRIRSRPPRLPRPRPRPIRFPRP | -0.964 |
| RRIRFRPPRLPRPRPRPEKLPRP | -0.0722 |
| RRIRSRPPRLPRPRPRPFHRPRP | -0.154 |
| RRIRYRPPRLPRPRPRPFYHPRP | -0.635 |
| RRIRFRPPRLPRPRPRPKWGPRP | 0.129 |
| RRIRCRPPRLPRPRPRPFYGPRP | -0.262 |
| RRIRRRPPRLPRPRPRPEFQPRP | -0.0288 |
| RRIRDRPPRLPRPRPRPVTCPRP | -0.00663 |
| RRIRSRPPRLPRPRPRPTMIPRP | -0.163 |
| RRIRDRPPRLPRPRPRPHVFPRP | -0.0358 |
| RRIRARPPRLPRPRPRPHIHPRP | -0.45 |

| Sequence | shrunken log2 fold change |
| --- | --- |
| RRIRSRPPRLPRPRPRPHLNPRP | -0.158 |
| RRIRKRPPRLPRPRPRPNRDPRP | 0.169 |
| RRIRIRPPRLPRPRPRPAYLPRP | -0.376 |
| RRIRNRPPRLPRPRPRPTPVPRP | 0.425 |
| RRIRERPPRLPRPRPRPCVKPRP | -0.00643 |
| RRIRARPPRLPRPRPRPMPCPRP | 0.535 |
| RRIRARPPRLPRPRPRPSTAPRP | 0.482 |
| RRIRFRPPRLPRPRPRPYYRPRP | 0.0478 |
| RRIRARPPRLPRPRPRPCFGPRP | 0.0532 |
| RRIRDRPPRLPRPRPRPAVEPRP | 0.845 |
| RRIRQRPPRLPRPRPRPTHGPRP | 0.0759 |
| RRIRFRPPRLPRPRPRPKSPPRP | -0.143 |
| RRIRQRPPRLPRPRPRPWPLPRP | -0.0625 |
| RRIRCRPPRLPRPRPRPVQHPRP | -0.0893 |
| RRIRIRPPRLPRPRPRPFGWPRP | 0.468 |
| RRIRLRPPRLPRPRPRPHAHPRP | -0.506 |
| RRIRDRPPRLPRPRPRPGARPRP | 0.863 |
| RRIRKRPPRLPRPRPRPKFHPRP | 0.161 |
| RRIRTRPPRLPRPRPRPMSVPRP | -0.00965 |
| RRIRERPPRLPRPRPRPMKCPRP | 0.00911 |
| RRIRERPPRLPRPRPRPPAQPRP | 0.0318 |
| RRIRARPPRLPRPRPRPKDGPRP | 0.298 |
| RRIRFRPPRLPRPRPRPSTMPRP | -0.391 |
| RRIRARPPRLPRPRPRPYIYPRP | -0.346 |
| RRIRQRPPRLPRPRPRPHMAPRP | -0.0694 |
